# According to IntAct's records for PubMed 31515488:
# B1: AP-4 complex subunit beta-1 (Homo sapiens), Q9Y6B7 (parent)
# chain: MPYLGSEDVVKELKKALCNPHIQADRLRYRNVIQRVIRYMTQGLDMSGVFMEMVKASATVDIVQKKLVYLYMCTYAPLKPDLALLAINTLCKDCSDPNPMVRGLALRSMCSLRMPGVQEYIQQPILNGLRDKASYVRRVAVLGCAKMHNLHGDSEVDGALVNELYSLLRDQDPIVVVNCLRSLEEILKQEGGVVINKPIAHHLLNRMSKLDQWGQAEVLNFLLRYQPRSEEELFDILNLLDSFLKSSSPGVVMGATKLFLILAKMFPHVQTDVLVRVKGPLLAACSSESRELCFVALCHVRQILHSLPGHFSSHYKKFFCSYSEPHYIKLQKVEVLCELVNDENVQQVLEELRGYCTDVSADFAQAAIFAIGGIARTYTDQCVQILTELLGLRQEHITTVVVQTFRDLVWLCPQCTEAVCQALPGCEENIQDSEGKQALIWLLGVHGERIPNAPYVLEDFVENVKSETFPAVKMELLTALLRLFLSRPAECQDMLGRLLYYCIEEEKDMAVRDRGLFYYRLLLVGIDEVKRILCSPKSDPTLGLLEDPAERPVNSWASDFNTLVPVYGKAHWATISKCQGAERCDPELPKTSSFAASGPLIPEENKERVQELPDSGALMLVPNRQLTADYFEKTWLSLKVAHQQVLPWRGEFHPDTLQMALQVVNIQTIAMSRAGSRPWKAYLSAQDDTGCLFLTELLLEPGNSEMQISVKQNEARTETLNSFISVLETVIGTIEEIKS
# partner: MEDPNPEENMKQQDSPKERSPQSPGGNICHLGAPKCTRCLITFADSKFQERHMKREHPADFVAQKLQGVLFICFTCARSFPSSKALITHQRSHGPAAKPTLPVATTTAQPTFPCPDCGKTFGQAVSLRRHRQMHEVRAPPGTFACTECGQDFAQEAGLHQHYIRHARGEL
# B2: Break repair meiotic recombinase recruitment factor 1 (Homo sapiens), Q0VDD7 (parent)
# chain: MTKRKKLRTSGEGLCPPKPLKNPRLGDFYGDPQSSMLGCLHHPEEPEGKLGPVPSTQQHGEEPGKAVSSSPDEETGSPCRLLRQPEKEPAPLPPSQNSFGRFVPQFAKSRKTVTRKEEMKDEDRGSGAFSLETIAESSAQSPGCQLLVETLGVPLQEATELGDPTQADSARPEQSSQSPVQAVPGSGDSQPDDPPDRGTGLSASQRASQDHLSEQGADDSKPETDRVPGDGGQKEHLPSIDSEGEKPDRGAPQEGGAQRTAGAGLPGGPQEEGDGVPCTPASAPTSGPAPGLGPASWCLEPGSVAQGSPDPQQTPSRMGREGEGTHSSLGCSSLGMVVIADLSTDPTELEERALEVAGPDGQASAISPASPRRKAADGGHRRALPGCTSLTGETTGESGEAGQDGKPPGDVLVGPTASLALAPGSGESMMGAGDSGHASPDTGPCVNQKQEPGPAQEEAELGGQNLERDLEGFRVSPQASVVLEHREIADDPLQEPGAQQGIPDTTSELAGQRDHLPHSADQGTWADSLAVELDFLLDSQIQDALDASDFEAPPEQLFPSGNKPGPCWPGPSSHANGDPVAVAKAQPRTFVGIQASEASRMEDATNVVRGLIVELSNLNRLIMGTHRDLEAFKRLNYRKTKLGGKAPLPYPSKGPGNIPRGDPPWREL
# partner: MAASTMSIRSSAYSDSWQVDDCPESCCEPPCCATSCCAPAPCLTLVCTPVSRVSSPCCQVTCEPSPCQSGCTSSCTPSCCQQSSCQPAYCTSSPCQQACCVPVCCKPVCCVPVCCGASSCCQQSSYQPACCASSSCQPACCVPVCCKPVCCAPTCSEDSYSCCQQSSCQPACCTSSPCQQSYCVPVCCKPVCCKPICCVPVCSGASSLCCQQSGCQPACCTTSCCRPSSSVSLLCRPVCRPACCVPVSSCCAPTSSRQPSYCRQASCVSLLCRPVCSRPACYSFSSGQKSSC
# B3: H/ACA ribonucleoprotein complex subunit 3 (Homo sapiens), Q9NPE3 (parent)
# chain: MFLQYYLNEQGDRVYTLKKFDPMGQQTCSAHPARFSPDDKYSRHRITIKKRFKVLMTQQPRPVL
# partner: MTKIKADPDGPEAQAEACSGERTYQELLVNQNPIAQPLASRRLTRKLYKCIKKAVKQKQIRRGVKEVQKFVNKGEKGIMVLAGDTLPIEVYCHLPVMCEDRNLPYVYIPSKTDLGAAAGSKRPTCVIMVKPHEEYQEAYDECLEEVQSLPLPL
# B4: Protein SSX3 (Homo sapiens), Q99909 (parent)
# chain: MNGDDTFARRPTVGAQIPEKIQKAFDDIAKYFSKEEWEKMKVSEKIVYVYMKRKYEAMTKLGFKAILPSFMRNKRVTDFQGNDFDNDPNRGNQVQRPQMTFGRLQGIFPKIMPKKPAEEGNVSKEVPEASGPQNDGKQLCPPGKPTTSEKINMISGPKRGEHAWTHRLRERKQLVIYEEISDPEEDDE
# Variants of: B1
# Details: with zn576_human ZNF576, Q9H609
row,effect of a mutation on the interaction,Variant
1,with no effect,L480S

# Variants of: B2
# Details: with kr109_human KRTAP10-9, P60411
row,effect of a mutation on the interaction,Variant
1,with no effect,N576S
2,with no effect,G267R
3,with no effect,L155F
4,with no effect,Q500R

# Variants of: B3
# Details: with nhp2_human NHP2, Q9NX24
row,effect of a mutation on the interaction,Variant
1,with no effect,D12H

# Variants of: B4
# Details: with cep63_human CEP63, Q96MT8
# Chain of cep63_human CEP63, Q96MT8 (Q96MT8 whole entry): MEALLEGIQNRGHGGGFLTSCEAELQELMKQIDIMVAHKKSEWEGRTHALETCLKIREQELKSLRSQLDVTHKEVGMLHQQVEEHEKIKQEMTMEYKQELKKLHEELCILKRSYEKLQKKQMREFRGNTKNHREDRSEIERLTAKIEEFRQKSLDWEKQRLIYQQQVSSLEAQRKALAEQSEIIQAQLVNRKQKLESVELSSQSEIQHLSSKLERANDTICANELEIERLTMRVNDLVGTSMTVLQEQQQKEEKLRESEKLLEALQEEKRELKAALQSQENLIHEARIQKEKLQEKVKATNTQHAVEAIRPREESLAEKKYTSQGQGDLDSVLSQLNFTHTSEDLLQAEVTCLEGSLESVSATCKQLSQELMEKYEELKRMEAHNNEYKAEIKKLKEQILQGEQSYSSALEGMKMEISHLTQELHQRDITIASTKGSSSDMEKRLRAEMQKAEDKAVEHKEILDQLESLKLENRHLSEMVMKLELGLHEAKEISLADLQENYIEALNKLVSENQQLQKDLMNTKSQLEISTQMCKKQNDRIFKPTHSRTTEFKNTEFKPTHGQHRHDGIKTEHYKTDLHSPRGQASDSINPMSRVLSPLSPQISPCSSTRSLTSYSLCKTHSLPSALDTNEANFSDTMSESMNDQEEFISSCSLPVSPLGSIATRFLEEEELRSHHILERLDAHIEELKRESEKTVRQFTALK
row,effect of a mutation on the interaction,Variant
1,with no effect,T77A
2,with no effect,R159S
